Several values for one entry are separate records, joined by “and”; a condition that tells them apart may be missing. Identical values can stand only once.
Assays:
[1] = target: pyruvate kinase (PK) M2 (PKM2) (human (endogenous in HRMCs)) (UniProt P14618); test: cross-linking; lysates of mouse glomeruli or HRMCs (sodium phosphate buffer pH 7.3, 0.5% Triton X-100), 0.01% glutaraldehyde 5 min 37°C, stopped with 50 mM Tris-Cl pH 8.0; 10% SDS-PAGE, blot with anti-PKM2; samples from db/m, db/db, AAV-shARAP1 mice; NG/HG, ARAP1 shRNA, ARAP1 overexpression, AG1478 in cells
[2] = target: pyruvate kinase (PK) M2 (PKM2) (mouse) (mouse (endogenous in isolated glomeruli)) (UniProt P52480); test: as above

Sequence of pyruvate kinase (PK) M2 (PKM2) (mouse), P52480 1-531 (enzyme; other documents disagree on this pair) (P52480 whole entry): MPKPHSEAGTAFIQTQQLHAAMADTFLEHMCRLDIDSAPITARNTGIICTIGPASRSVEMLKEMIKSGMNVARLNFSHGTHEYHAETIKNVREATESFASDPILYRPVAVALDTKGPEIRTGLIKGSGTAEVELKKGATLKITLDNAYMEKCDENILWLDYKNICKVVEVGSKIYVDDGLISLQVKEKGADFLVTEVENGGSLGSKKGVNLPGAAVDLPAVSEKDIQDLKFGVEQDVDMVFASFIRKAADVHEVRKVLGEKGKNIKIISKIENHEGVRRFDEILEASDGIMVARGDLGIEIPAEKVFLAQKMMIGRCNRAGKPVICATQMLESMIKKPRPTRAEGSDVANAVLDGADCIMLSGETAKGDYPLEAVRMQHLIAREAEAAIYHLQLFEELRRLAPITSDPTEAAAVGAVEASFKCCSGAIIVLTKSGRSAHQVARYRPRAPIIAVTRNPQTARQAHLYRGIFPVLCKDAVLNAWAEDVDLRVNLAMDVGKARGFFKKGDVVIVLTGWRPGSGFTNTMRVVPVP
Sequence of pyruvate kinase (PK) M2 (PKM2), P14618 1-531 (enzyme; other documents disagree on this pair) (P14618 whole entry): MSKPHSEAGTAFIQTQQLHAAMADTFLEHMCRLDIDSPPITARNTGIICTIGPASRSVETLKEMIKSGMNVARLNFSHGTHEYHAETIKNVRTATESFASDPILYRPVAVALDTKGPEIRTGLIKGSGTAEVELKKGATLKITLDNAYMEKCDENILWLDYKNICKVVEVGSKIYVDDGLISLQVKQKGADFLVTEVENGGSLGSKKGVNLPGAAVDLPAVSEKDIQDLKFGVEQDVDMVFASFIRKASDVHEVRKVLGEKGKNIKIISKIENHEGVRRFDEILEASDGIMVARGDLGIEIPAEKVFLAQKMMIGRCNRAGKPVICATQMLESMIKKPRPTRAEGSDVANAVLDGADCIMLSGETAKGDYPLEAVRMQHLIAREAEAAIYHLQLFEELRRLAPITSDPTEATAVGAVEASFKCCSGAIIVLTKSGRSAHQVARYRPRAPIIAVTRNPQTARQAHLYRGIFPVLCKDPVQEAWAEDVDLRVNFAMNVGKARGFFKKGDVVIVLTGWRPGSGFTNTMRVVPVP

| stoichiometry N [1] | stoichiometry N [2] | Substance |
| --- | --- | --- |
| 2 |  | pyruvate kinase (PK) M2 (PKM2), P14618 1-531 (enzyme; other documents disagree on this pair) |
|  | 2 and 4 | pyruvate kinase (PK) M2 (PKM2) (mouse), P52480 1-531 (enzyme; other documents disagree on this pair) |
